Several values for one entry are separate records, joined by “and”; a condition that tells them apart may be missing. Equal entries are not always repeated. Where no end group is shown, it is not given here. [ ]: non-standard residue; d: D form. The star is where a group is joined. aminomethylferrocene = [Fe+2].c1cc[c-](CN*)c1.c1cc[cH-]c1; Ava = NCCCCC(=O)O
Target: cathepsin B (Homo sapiens, UniProt P07858)
Test: Electrochemical (AC voltammetry) proteolysis of peptide-Fc substrates on 3x3 Au MEA, Example 1
Type: biochemical
Set-up: purchased R&D Systems Inc. (Minneapolis, MN)
Conditions: for 1/τ AVG: average of 3 channels per peptide, 50 mM MES buffer pH=5.0, FIG. 8; for average values of 1/τ: three peptides on one MEA, 3 channels each, 50 mM MES pH=5.0
Description: N-Fluorenylmethyloxycarbonyl (Fmoc) protected amino acids, amino acid attached 2-chlorotrityl resins, 1-[bis(dimethylamino)methylene]-1H-1,2,3-triazolo[4,5-b]pyridinium 3-oxide hexafluorophosphate (HATU), and 2-(1H-benzotriazol-1-yl)-1,1,3,3-tetramethyluronium hexafluorophosphate (HBTU) were purchased from Chem-Impex International, Inc. (Wood Dale, IL) and AAPPTEC LLC (Louisville, KY). Potassium hexacyanoferrate (II) trihydrate, potassium nitrate, 1-ethyl-3-(3-dimethylaminopropyl)carbodiimide (EDC), N-hydroxysulfosuccinimide (Sulfo-NHS), 6-mercapto-1-hexanol, and 6-mercapto-1-hexanoic acid were obtained from Sigma-Aldrich (St. Louis, MO). Dithiothreitol (DTT), sodium phosphate dibasic heptahydrate (Na2HPO4·7H2O), sodium phosphate monobasic (NaH2PO4) and 2-(4-morpholino)ethanesulfonic acid ([…]) were purchased from Fisher Scientific (Hampton, NH). […] Cathepsin B solutions were activated by incubation in 25 mM MES buffer (pH=5.0) containing 5 mM DTT for 15 min before proteolysis experiments.
Electrochemical measurements were performed using an Ivium n-Stat Potentiostat (Eindhoven, The Netherlands) outfitted with five dual channel modules, allowing up to ten independent working electrodes to function simultaneously with a common reference and counter electrodes. […] In this study, the nine leads from the potentiostat (FIG. 9b) were interfaced with a breakout box, which was then connected to a custom-built electrochemical cell via a ribbon cable (FIG. 9c). The sensor chip consists of nine lithographically patterned Au working microelectrodes placed in the custom-built electrochemical cell (FIG. 9d) and electrical contact was made via pogo pins. All measurements were performed using a common mercury/mercurous sulfate reference electrode (Hg/Hg2SO4, MSE) filled with a saturated solution of K2SO4 (CH Instruments, Austin, TX) and a common Pt wire counter electrode.
Prior to use, the MEAs were sonicated in acetone for 1 minute, subsequently rinsed with methanol and isopropanol for 15 s and then dried by blowing with nitrogen. Next, the electrodes were placed in the experimental cell and electrochemically cleaned by cycling from −0.60 to 0.70 V vs. MSE in 0.10 M phosphate buffer (pH=7.4). For the experiments using an MEA modified with the same peptide-Fc substrate (i.e., H-15) on all nine microelectrodes, the whole chip was incubated in a mixture of 1.0 mM 6-mercapto-1-hexanol and 0.2 mM 6-mercapto-1-hexanoic acid in deionized water for 40 min to form a self-assembled monolayer (SAM). This step passivated the entire Au microelectrode surface while leaving adequate spacing between the exposed carboxyl functionalities. Next, the electrodes were incubated in a solution containing 2.0 mM peptide-Fc substrate (i.e., H-3, H-15, or H-16), 0.20 g/l EDC and 0.20 g/l sulfo-NHS for 2 hours at room temperature so that the peptides were covalently attached to the carboxyl groups of the SAM through the formation of amide bonds. The low ratio of carboxyl to hydroxyl groups at the SAM surface ensured a large separation between the peptide-Fc molecules which was important to reduce the steric hindrance during subsequent proteolysis measurements. Finally, the electrodes were rinsed with deionized water to remove any non-bound peptide-Fc substrate that may be physiosorbed on the surface. For multiplex experiments, the chip was masked with a ˜1.2 mm thick polydimethylsiloxane (PDMS) film punched with a 3×3 array of ˜0.7 mm diameter holes that were aligned on top of each Au microelectrodes. About 100 μl mixed thiol solution (6-mercapto-1-hexanol and 6-mercapto-1-hexanoic acid) as described above was added on the chip surface to fill all nine PDMS holes and was incubated for 40 min. Then, the microelectrodes and wells were rinsed and dried on a hot plate at 35° C. Finally, 0.50 μl of the EDC/sulfo-NHS/peptide-Fc (H-3, H-15, or H-16) reaction mixture was added to each well using a nanoinjector mounted on a x-y-z-micromanipulator and incubated for 2 h. […]

Substance | 1/τ AVG (6.0 nM cathepsin B) [s⁻¹] | average values of 1/τ (6.0 nM cathepsin B) | average value of 1/τ (CH 1-6, 6.0 nM cathepsin B, MES buffer pH=5.0) | fitted value of 1/τ (CH 4, 6.0 nM cathepsin B, 25 mM MES buffer pH=5.0) [s⁻¹] | 1/τ Avg (average of channels 1-6, H-15 modified Au MEA, 6.0 nM cathepsin B, MES buffer pH=5.0) [s⁻¹] | 1/τ (individual channels 1-6 of H-15 modified Au MEA, 6.0 nM cathepsin B, MES buffer pH=5.0, FIG. 7)
H2N-(CH2)4-CO-Pro-Leu-Ala-Gly-Val-Ala-NH-CH2-Fc ([Ava]PLAGVA-aminomethylferrocene) [Peptide H-16] | 8.90 | (8.9±1.1)×10^−4 s^−1 |  |  |  | 
H2N-(CH2)4-CO-Pro-Leu-Ala-Phe-Val-Ala-NH-CH2-Fc ([Ava]PLAFVA-aminomethylferrocene) [Peptide H-15] | 6.79 | (6.8±1.8)×10^−4 s^−1 | (6.63±0.87)×10^−4 s^−1 | 0.000684 | 0.000663 | 0.000684 s⁻¹ and 0.000779 s⁻¹ and 0.000645 s⁻¹ and 0.00055 s⁻¹ and 0.000734 s⁻¹ and 0.000588 s⁻¹
H2N-(CH2)4-CO-Pro-Leu-Arg-Phe-Gly-Ala-NH-CH2-Fc ([Ava]PLRFGA-aminomethylferrocene) [Peptide H-3] | 7.36 | (7.4±0.9)×10^−4 s^−1 |  |  |  | 

— patent publication US12618835B2, “Multiplex microelectrode array for detection of proteases as biomarkers” (Kansas State University Research Foundation, priority 2021, dated 2026)
